In patent publication US20230235040A1 (ALMIRALL S A, published 2023):

Tests used:
[1] = target: T1, hu-IL-36β-Avi (in-vivo biotinylated) (human, site-specifically biotinylated in vivo on the C-terminal AviTag (BirA)); experiment: SPR (Biacore 8K), in-vivo biotinylated IL-36-Avi captured on CAP chip, bispecific IgG injected, 25°C
T1 construct: also called biotinylated human IL-36β-Avi
T1 chain: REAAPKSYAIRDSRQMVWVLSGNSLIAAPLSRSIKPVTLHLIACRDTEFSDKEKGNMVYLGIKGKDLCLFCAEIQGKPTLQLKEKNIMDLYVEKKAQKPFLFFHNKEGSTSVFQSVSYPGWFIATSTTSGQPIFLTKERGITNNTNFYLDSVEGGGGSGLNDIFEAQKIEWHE
Method: (§1) Surface plasmon resonance (SPR) analysis was used to determine the binding affinity for human and cynomolgus monkey IL-36 (“hu-IL-36” and “cy-IL-36,” respectively) using a BIACORE™ 8K instrument as described in Example 2. […] Briefly, a 1:4 dilution of Biotin CAPture Reagent (GE Healthcare) into HBS-EP buffer (0.01 M HEPES pH 7.4, 0.15 M NaCl, 3 mM EDTA, 0.005% Surfactant P20) was applied to a CAP sensor chip at 2 μL/min flow rate. For kinetics measurements, 1 nM biotinylated human and cyno IL-36α-Avi, IL-36γ-Avi; 0.8 nM biotinylated human and cyno IL-36β-Avi were captured at 10 μL/min to achieve 15-25 response units in the second flow cell (FC2). FC1 was kept as a reference. […] The sensorgram was recorded and subject to reference and buffer subtraction before data analysis with the BIACORE® 8K Evaluation Software (version 1.1.1.7442). […] Association rates (kₒₙ) and dissociation rates (koff) were calculated using a simple one-to-one Langmuir binding model. The equilibrium dissociation constant (KD) was calculated as the ratio of koff/kₒₙ.

[2] = target: T2, cy-IL-36γ-Avi (in-vivo biotinylated) (cynomolgus monkey, limits assumed, site-specifically biotinylated in vivo on the C-terminal AviTag (BirA)); experiment: as above
T2 construct: also called biotinylated cyno IL-36γ-Avi
T2 chain: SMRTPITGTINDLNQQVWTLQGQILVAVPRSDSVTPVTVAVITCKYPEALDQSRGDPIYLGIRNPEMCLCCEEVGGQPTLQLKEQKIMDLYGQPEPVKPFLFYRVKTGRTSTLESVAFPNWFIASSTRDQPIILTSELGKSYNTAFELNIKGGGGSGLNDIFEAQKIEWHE
Method: as §1

[3] = target: T3, cy-IL-36β-Avi (in-vivo biotinylated) (cynomolgus monkey, site-specifically biotinylated in vivo on the C-terminal AviTag (BirA)); experiment: as above
T3 construct: also called cy-IL-36J-Avi [sic]; biotinylated cyno IL-36β-Avi
T3 chain: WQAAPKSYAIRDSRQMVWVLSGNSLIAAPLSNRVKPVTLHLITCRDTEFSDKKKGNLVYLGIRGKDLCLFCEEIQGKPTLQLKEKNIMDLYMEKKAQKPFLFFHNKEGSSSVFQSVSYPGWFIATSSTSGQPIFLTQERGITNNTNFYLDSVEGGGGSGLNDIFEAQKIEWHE
Method: as §1

[4] = target: T4, hu-IL-36α-Avi (in-vivo biotinylated) (human, site-specifically biotinylated in vivo on the C-terminal AviTag (BirA)); experiment: as above
T4 construct: also called biotinylated human IL-36α-Avi
T4 chain: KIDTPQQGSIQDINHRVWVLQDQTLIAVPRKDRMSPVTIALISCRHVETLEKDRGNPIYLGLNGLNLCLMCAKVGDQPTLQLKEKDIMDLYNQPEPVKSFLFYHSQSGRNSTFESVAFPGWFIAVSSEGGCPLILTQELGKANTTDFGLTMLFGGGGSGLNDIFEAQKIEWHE
Method: as §1

[5] = target: T5, hu-IL-36γ-Avi (in-vivo biotinylated) (human, site-specifically biotinylated in vivo on the C-terminal AviTag (BirA)); experiment: as above
T5 construct: also called biotinylated human IL-36γ-Avi
T5 chain: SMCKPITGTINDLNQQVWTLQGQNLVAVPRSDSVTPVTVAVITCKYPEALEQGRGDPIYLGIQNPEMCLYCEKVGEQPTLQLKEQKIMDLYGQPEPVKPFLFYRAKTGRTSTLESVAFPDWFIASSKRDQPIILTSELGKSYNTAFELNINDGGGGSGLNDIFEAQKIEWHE
Method: as §1

[6] = target: T6, cy-IL-36α-Avi (in-vivo biotinylated) (cynomolgus monkey, limits assumed, site-specifically biotinylated in vivo on the C-terminal AviTag (BirA)); experiment: as above
T6 construct: also called biotinylated cyno IL-36α-Avi
T6 chain: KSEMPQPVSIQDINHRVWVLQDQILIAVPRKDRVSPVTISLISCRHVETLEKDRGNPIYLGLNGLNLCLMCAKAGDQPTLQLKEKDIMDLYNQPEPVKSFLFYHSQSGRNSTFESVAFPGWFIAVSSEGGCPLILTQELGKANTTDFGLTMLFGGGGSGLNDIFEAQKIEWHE
Method: as §1

[7] = target: T2, cy-IL-36γ-Avi (in-vivo biotinylated); experiment: SPR (Biacore 8K), in-vivo biotinylated IL-36-Avi captured on CAP chip, bispecific IgG injected, 37°C
Method: as §1

[8] = target: T6, cy-IL-36α-Avi (in-vivo biotinylated); experiment: as above
Method: as §1

Kd [1]: 630 pM
koff [1]: 4.77e-05 s⁻¹
kon [1]: 76000 M⁻¹ s⁻¹
Kd [2]: 790 pM
koff [2]: 0.00013 s⁻¹
kon [2]: 165000 M⁻¹ s⁻¹
Kd [3]: 970 pM
koff [3]: 6.32e-05 s⁻¹
kon [3]: 65200 M⁻¹ s⁻¹
Kd [4]: 1170 pM
koff [4]: 0.000157 s⁻¹
kon [4]: 134000 M⁻¹ s⁻¹
Kd [5]: 720 pM
koff [5]: 0.000122 s⁻¹
kon [5]: 171000 M⁻¹ s⁻¹
Kd [6]: 1930 pM
koff [6]: 0.000335 s⁻¹
kon [6]: 174000 M⁻¹ s⁻¹
Kd [7]: 940 pM
koff [7]: 0.000148 s⁻¹
kon [7]: 158000 M⁻¹ s⁻¹
Kd [8]: 2570 pM
koff [8]: 0.000625 s⁻¹
kon [8]: 243000 M⁻¹ s⁻¹
B1: mAb2.10/mAb6_2.7 multispecific common light chain antibody (IgG, knobs-into-holes, N297G) (bispecific antibody)
heavy 1: not shown
heavy 2: not shown
light: ESVLTQPPSVSGAPGQRVTISCTGSSSNIGAHYDVHWYQQLPGTAPKLLIYGNDNRPSGVPDRFSGSKSGTSASLAITGLQAEDEADYYCQSYDYSLSGYVFGGGTKLTVLGQPKAAPSVTLFPPSSEELQANKATLVCLISDFYPGAVTVAWKADSSPVKAGVETTTPSKQSNNKYAASSYLSLTPEQWKSHKSYSCQVTHEGSTVEKTVAPTECS
notes: tags removed; also called mAb2.10/mAb6_2.7 IgG; anti-IL-36 multispecific antibody
